This passage reports Kd results from patent publication US20180237527A1 (METIS PRECISION MEDICINE SB S R L, published 2018).

B1: chimerized DN30 Fab (MvDN30) (Fab)
heavy: QVQLQQPGTELVKPGASVKLSCKASGYTFTSYWIHWVKQRPGQGLEWIGEINPSSGRTNYNEKFKNKVTVTVDKSSTTAYMQLSNLTSEDSAVYYCASRGYWGQGTTLTVSSASTKGPSVFPLAPSSKSTSGGTAALGCLVKDYFPEPVTVSWNSGALTSGVHTFPAVLQSSGLYSLSSVVTVPSSSLGTQTYICNVNHKPSNTKVDKKVEPKSC
light: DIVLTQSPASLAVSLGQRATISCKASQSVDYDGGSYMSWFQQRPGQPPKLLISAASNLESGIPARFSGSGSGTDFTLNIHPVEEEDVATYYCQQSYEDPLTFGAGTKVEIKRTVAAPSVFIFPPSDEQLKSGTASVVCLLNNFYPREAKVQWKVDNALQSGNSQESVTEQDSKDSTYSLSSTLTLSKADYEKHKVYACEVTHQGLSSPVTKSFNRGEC
notes: also called chimeric MvDN30; chimeric DN30 Fab
B2: DCD-MvDN30.1 (Dual Constant Domain Fab with the duplicated constant domains in tandem) (Fab)
heavy: QVQLQQPGTELVKPGASVKLSCKASGYTFTSYWIHWVKQRPGQGLEWIGEINPSSGRTNYNEKFKNKVTVTVDKSSTTAYMQLSNLTSEDSAVYYCASRGYWGQGTTLTVSSASTKGPSVFPLAPSSKSTSGGTAALGCLVKDYFPEPVTVSWNSGALTSGVHTFPAVLQSSGLYSLSSVVTVPSSSLGTQTYICNVNHKPSNTKVDKKVEPKSCASTKGPSVFPLAPSSKSTSGGTAALGCLVKDYFPEPVTVSWNSGALTSGVHTFPAVLQSSGLYSLSSVVTVPSSSLGTQTYICNVNHKPSNTKVDKKVEPKSCDKTHTGAAWSHPQFEKGAAWSHPQFEKGAAWSHPQFEKGAAHHHHHH
light: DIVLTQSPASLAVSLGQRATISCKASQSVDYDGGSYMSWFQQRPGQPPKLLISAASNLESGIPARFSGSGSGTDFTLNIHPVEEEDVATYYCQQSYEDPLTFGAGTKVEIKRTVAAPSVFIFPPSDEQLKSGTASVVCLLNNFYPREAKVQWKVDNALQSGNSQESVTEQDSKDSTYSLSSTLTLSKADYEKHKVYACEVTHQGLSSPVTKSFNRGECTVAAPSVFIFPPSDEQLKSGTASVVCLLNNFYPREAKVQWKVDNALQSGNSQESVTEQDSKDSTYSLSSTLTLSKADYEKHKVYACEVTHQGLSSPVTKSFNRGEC
notes: also called DCD-Fab
B3: DCD-MvDN30.2 (Dual Constant Domain Fab with the duplicated constant domains swapped reciprocally) (Fab)
heavy: QVQLQQPGTELVKPGASVKLSCKASGYTFTSYWIHWVKQRPGQGLEWIGEINPSSGRTNYNEKFKNKVTVTVDKSSTTAYMQLSNLTSEDSAVYYCASRGYWGQGTTLTVSSASTKGPSVFPLAPSSKSTSGGTAALGCLVKDYFPEPVTVSWNSGALTSGVHTFPAVLQSSGLYSLSSVVTVPSSSLGTQTYICNVNHKPSNTKVDKKVEPKSCTVAAPSVFIFPPSDEQLKSGTASVVCLLNNFYPREAKVQWKVDNALQSGNSQESVTEQDSKDSTYSLSSTLTLSKADYEKHKVYACEVTHQGLSSPVTKSFNRGEC
light: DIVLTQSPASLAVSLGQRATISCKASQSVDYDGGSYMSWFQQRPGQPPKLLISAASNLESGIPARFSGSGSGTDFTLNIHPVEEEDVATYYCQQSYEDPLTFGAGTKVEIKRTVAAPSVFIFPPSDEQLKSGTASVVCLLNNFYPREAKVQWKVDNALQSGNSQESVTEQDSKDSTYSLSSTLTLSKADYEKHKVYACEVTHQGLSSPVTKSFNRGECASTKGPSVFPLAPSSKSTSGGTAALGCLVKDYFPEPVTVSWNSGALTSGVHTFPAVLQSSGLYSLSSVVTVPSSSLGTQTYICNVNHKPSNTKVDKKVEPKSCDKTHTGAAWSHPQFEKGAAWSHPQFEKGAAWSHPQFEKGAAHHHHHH
notes: also called DCD-Fab

T1 sequence (P08581 25-932, change not shown): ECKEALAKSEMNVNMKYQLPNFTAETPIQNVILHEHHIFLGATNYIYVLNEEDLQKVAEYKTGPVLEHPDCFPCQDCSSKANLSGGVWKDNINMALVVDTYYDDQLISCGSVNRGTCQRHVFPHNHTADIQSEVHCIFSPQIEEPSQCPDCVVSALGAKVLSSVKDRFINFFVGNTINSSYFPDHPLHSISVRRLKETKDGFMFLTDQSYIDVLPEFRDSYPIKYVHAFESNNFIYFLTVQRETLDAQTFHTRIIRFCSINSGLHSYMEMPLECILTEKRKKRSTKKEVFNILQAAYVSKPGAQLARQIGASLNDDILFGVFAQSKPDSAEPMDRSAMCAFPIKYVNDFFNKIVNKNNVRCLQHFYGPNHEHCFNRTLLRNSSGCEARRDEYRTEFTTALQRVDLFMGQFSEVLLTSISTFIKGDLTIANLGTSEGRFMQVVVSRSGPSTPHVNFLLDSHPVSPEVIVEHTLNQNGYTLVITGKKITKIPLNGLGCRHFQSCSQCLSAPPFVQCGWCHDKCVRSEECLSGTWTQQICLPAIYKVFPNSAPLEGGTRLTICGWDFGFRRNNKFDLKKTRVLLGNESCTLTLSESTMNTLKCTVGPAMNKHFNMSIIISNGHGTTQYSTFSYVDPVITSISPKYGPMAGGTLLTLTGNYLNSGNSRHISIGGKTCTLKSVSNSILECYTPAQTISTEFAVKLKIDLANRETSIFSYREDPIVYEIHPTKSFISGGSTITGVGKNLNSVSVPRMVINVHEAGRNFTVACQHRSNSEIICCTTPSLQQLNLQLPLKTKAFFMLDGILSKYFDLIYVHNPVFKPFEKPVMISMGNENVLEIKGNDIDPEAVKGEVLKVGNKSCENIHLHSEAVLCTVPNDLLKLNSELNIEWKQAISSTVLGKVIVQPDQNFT

The test concerns the target T1, Met-Fc chimera (human, UniProt P08581 25-932).
T1 construct: extracellular domain;domain: Fc domain; Bought from R&D Systems; also called Fc-Met; Met ectodomain; not shown: Fc domain derived from a human IgG
As to the kind of experiment: ELISA, Met-Fc chimera in solid phase, antibody fragment in liquid phase, anti-strepTAG detection. As to the method: Purified DCD-MvDN30.1 and DCD-MvDN30.2 were characterized for their ability to bind the Met receptor. To this end, the present inventors performed ELISA assays using Met ectodomain in solid phase and MvDN30, DCD-MvDN30.1 and DCD-MvDN30.2 in liquid phase.
[…] […] Data were analyzed and fit using Prism software (Graph Pad Software, San Diego, Calif.). Met-Fc chimera is a fusion protein wherein the Fc domain derived from a human IgG is fused in frame with the Met extracellular portion.
Background: ELISA stands for enzyme-linked immunosorbent assay.
With B1, binding was put at a Kd of 141 pM.

The molecule B2 came in with a Kd of 133 pM.

B3 came in with a Kd of 130 pM.

What is called Kd is the constant that tells how readily two partners part at equilibrium. High values mean weaker binding, low ones tighter binding.
